# From publication PMC6262109
# Where two headings read alike, the source gives them in different places.
# T1: FLAG-Dmp1 (Dmp1alpha) (UniProt Q8CE22 1-761)
# T1 sequence: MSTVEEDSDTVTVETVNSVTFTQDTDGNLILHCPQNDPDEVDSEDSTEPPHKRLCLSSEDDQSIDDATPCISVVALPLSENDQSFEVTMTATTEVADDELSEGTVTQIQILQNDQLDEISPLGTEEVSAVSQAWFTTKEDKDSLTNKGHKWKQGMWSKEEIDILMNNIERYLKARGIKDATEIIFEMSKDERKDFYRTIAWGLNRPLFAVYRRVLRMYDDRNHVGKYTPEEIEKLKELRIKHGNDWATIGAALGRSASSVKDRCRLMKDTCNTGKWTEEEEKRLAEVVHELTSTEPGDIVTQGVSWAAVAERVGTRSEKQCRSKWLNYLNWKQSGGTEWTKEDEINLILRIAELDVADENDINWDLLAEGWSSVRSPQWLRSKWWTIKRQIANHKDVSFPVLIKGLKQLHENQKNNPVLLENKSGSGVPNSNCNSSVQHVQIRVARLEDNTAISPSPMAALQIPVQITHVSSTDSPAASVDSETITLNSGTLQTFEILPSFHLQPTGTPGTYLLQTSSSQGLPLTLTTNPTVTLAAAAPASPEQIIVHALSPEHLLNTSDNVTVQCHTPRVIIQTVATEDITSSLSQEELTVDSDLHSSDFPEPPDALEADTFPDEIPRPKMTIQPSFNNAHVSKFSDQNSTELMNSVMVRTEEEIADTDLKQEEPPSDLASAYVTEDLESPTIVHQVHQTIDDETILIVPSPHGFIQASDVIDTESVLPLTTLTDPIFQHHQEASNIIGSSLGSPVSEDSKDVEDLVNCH
# B1: mouse Arf promoter Dmp1 site (dsDNA)
# DNA 1: TACCTCGTGGGGCGGATGCACAGAAGCAC
# DNA 2: GTGCTTCTGTGCATCCGCCCCACGAGGTA
# B2: mouse p21Cip1 p53 consensus #2 (dsDNA)
# DNA 1: AGACTGGGCATGTCTGGGCA
# DNA 2: TGCCCAGACATGCCCAGTCT
# B3: p53-g general p53 consensus (dsDNA)
# DNA 1: AGGCATGCCTAGGCATGCCT
# DNA 2: AGGCATGCCTAGGCATGCCT
# What was measured:
# Experiment in all cases: EMSA
# [1] = target: T1, FLAG-Dmp1 (Dmp1alpha)
# [2] = target: p53 (UniProt P04637 1-393)
# [3] = target: T2, FLAG-Dmp1 (Dmp1alpha);p53 (mouse?;, UniProt Q8CE22;P04637 1-761;1-393, |)
# [4] = target: T2, FLAG-Dmp1 (Dmp1alpha);p53; remark: listed apart in the source
binder,measurement,setting,value
B1,binding result,[1],binds
B2,binding result,[2],binds
same,binding signal,[3],3 fold vs p53+BSA
B3,binding signal,[4],6 fold vs p53 alone
